Data from article PMC4735607, “Reversal of axonal growth defects in an extraocular fibrosis model by engineering the kinesin–microtubule interface” (Nature Communications, 2016).
Where a chain is given by its changes, count along the chain named. Names and notes keep the numbering of the source.

B1: two-headed KIF5B motor, human KIF5B construct HK432 (residues 1-432, SNAP tag, His6) (domain or fragment, UniProt P33176 1-432, looked up)
chain: MADLAECNIKVMCRFRPLNESEVNRGDKYIAKFQGEDTVVIASKPYAFDRVFQSSTSQEQVYNDCAKKIVKDVLEGYNGTIFAYGQTSSGKTHTMEGKLHDPEGMGIIPRIVQDIFNYIYSMDENLEFHIKVSYFEIYLDKIRDLLDVSKTNLSVHEDKNRVPYVKGCTERFVCSPDEVMDTIDEGKSNRHVAVTNMNEHSSRSHSIFLINVKQENTQTEQKLSGKLYLVDLAGSEKVSKTGAEGAVLDEAKNINKSLSALGNVISALAEGSTYVPYRDSKMTRILQDSLGGNCRTTIVICCSPSSYNESETKSTLLFGQRAKTIKNTVCVNVELTAEQWKKKYEKEKEKNKILRNTIQWLENELNRWRNGETVPIDEQFDKEKANLEAFTVDKDITLTNDKPATAIGVIGNFTDAERRKCEEEIAKLYKQL
modifications: fluorescent dye BG-549 (SNAP-surface 549) on the SNAP tag
notes: human kinesin-1 heavy chain KIF5B, residues 1-432; also called WT KIF5B
B2: D279N KIF5B, construct HK432 (residues 1-432, SNAP tag, His6) (domain or fragment, human, UniProt P33176 1-432, looked up)
chain: B1 chain with D279N
modifications: fluorescent dye BG-549 (SNAP-surface 549) on the SNAP tag
notes: human kinesin-1 heavy chain KIF5B, residues 1-432, D279N in the L12 loop; also called mutant HK432
B3: D279R KIF5B, construct HK432 (residues 1-432, SNAP tag, His6) (domain or fragment, human, UniProt P33176 1-432, looked up)
chain: B1 chain with D279R
modifications: fluorescent dye BG-549 (SNAP-surface 549) on the SNAP tag
notes: human kinesin-1 heavy chain KIF5B, residues 1-432, D279R in the L12 loop; also called mutant HK432
B4: D279R KIF5B, single-headed construct HK349 (residues 1-349, SNAP tag, His6) (domain or fragment, human, UniProt P33176 1-349, looked up)
chain: MADLAECNIKVMCRFRPLNESEVNRGDKYIAKFQGEDTVVIASKPYAFDRVFQSSTSQEQVYNDCAKKIVKDVLEGYNGTIFAYGQTSSGKTHTMEGKLHDPEGMGIIPRIVQDIFNYIYSMDENLEFHIKVSYFEIYLDKIRDLLDVSKTNLSVHEDKNRVPYVKGCTERFVCSPDEVMDTIDEGKSNRHVAVTNMNEHSSRSHSIFLINVKQENTQTEQKLSGKLYLVDLAGSEKVSKTGAEGAVLDEAKNINKSLSALGNVISALAEGSTYVPYRRSKMTRILQDSLGGNCRTTIVICCSPSSYNESETKSTLLFGQRAKTIKNTVCVNVELTAEQWKKKYEKEKE
modifications: fluorescent dye BG-549 (SNAP-surface 549) on the SNAP tag
notes: kinesin-1 heavy chain KIF5B, residues 1-349, D279R in the L12 loop
B5: single-headed KIF5B construct HK349 (residues 1-349, SNAP tag, His6) (domain or fragment, human, UniProt P33176 1-349, looked up)
chain: B4 chain with R279D
modifications: fluorescent dye BG-549 (SNAP-surface 549) on the SNAP tag
notes: kinesin-1 heavy chain KIF5B, residues 1-349; monomeric construct; also called K349-SNAP-His; minimal motor

What was measured:
[1] = target: microtubules of recombinant human TUBA1B/TUBB3 tubulin with TUBB3 R262A (human) (UniProt P68363)
Chain of microtubules of recombinant human TUBA1B/TUBB3 tubulin with TUBB3 R262A (human) (P68363 whole entry K40R, chain 1 of 2): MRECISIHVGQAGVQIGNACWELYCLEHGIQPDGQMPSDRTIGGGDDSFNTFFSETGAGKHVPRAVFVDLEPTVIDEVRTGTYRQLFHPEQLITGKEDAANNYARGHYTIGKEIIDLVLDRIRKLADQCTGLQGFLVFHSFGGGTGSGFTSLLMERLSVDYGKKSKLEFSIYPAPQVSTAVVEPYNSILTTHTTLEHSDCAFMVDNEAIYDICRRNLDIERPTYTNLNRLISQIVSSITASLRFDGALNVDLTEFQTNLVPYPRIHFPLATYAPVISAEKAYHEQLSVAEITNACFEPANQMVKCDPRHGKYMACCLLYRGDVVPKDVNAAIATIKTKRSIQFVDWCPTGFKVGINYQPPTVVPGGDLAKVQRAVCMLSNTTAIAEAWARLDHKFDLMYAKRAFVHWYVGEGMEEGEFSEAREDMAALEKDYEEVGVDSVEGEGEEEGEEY
Chain of microtubules of recombinant human TUBA1B/TUBB3 tubulin with TUBB3 R262A (human) (Q13509 whole entry R262A, chain 2 of 2, further chain): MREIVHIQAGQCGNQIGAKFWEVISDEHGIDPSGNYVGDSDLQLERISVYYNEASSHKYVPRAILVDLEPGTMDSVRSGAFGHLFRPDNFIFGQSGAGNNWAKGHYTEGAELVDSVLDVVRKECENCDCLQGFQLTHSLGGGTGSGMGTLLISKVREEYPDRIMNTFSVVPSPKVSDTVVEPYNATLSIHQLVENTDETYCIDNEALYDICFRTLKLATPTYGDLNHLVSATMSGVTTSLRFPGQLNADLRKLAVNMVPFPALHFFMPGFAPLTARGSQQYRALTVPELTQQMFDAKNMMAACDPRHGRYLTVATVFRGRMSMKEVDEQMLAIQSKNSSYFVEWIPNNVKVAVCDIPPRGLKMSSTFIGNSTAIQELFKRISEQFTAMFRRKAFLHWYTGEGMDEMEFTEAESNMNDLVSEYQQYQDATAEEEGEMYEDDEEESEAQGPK

[2] = target: microtubules of recombinant human TUBA1B/TUBB3 tubulin with TUBB3 R262H (human) (UniProt P68363)
Chain of microtubules of recombinant human TUBA1B/TUBB3 tubulin with TUBB3 R262H (human) (P68363 whole entry K40R, chain 1 of 2): as the sequence (P68363 whole entry K40R, chain 1 of 2) above
Chain of microtubules of recombinant human TUBA1B/TUBB3 tubulin with TUBB3 R262H (human) (Q13509 whole entry R262H, chain 2 of 2, further chain): as the sequence (Q13509 whole entry R262A, chain 2 of 2, further chain) above, with A262H counted along it

[3] = target: T1, microtubules of recombinant human TUBA1B/TUBB3 tubulin, wild type (human, UniProt P68363-1 1-451; Q13509-1 1-450, K40R); assay: single-molecule motility assay (total internal reflection fluorescence microscopy); MTs immobilised on PEG-coated glass via streptavidin and biotinylated nonmotile kinesin HK340-E236A; BG-549-labelled HK432 at 0.4 nM; x2 MA buffer pH 6.8, 1 mM ATP, 1 mg/ml casein, 10 uM taxol, 25 °C; conditions: both partners purified
T1 construct: Polymer of alpha/beta heterodimers stabilised with taxol; also called WT MTs; WT MT; source: HighFive insect cells (baculovirus), purified (DEAE Sepharose, TALON, anti-FLAG resin), polymerized with taxol; not shown: FLAG (DYKDDDDK)
T1 sequence (P68363 whole entry K40R, chain 1 of 2): as the sequence (P68363 whole entry K40R, chain 1 of 2) above
T1 sequence (Q13509 whole entry, chain 2 of 2): as the sequence (Q13509 whole entry R262A, chain 2 of 2, further chain) above, with A262R counted along it

[4] = target: T2, microtubules of recombinant human TUBA1B/TUBB3 tubulin with TUBB3 R262A (human, UniProt P68363-1 1-451; Q13509-1 1-450, K40R | R262A); assay: as above; conditions: both partners purified
T2 construct: human beta3-tubulin TUBB3 with the synthetic mutation R262A; also called R262A MTs; β-R262A MT; source: HighFive insect cells (baculovirus), purified (DEAE Sepharose, TALON, anti-FLAG resin), polymerized with taxol; not shown: FLAG (DYKDDDDK)
T2 sequence (P68363 whole entry K40R, chain 1 of 2): as the sequence (P68363 whole entry K40R, chain 1 of 2) above
T2 sequence (Q13509 whole entry R262A, chain 2 of 2): as the sequence (Q13509 whole entry R262A, chain 2 of 2, further chain) above

[5] = target: T2, microtubules of recombinant human …; assay: co-sedimentation; BG-549-labelled HK349 with MTs; x2 MA buffer, 1 mg/ml casein, 40 uM taxol, 1 mM ADP and 1 U/ml hexokinase (ADP state); conditions: both partners purified
[6] = target: T2, microtubules of recombinant human …; assay: co-sedimentation; BG-549-labelled HK349 with MTs; x2 MA buffer, 1 mg/ml casein, 40 uM taxol, 1 U/ml apyrase (nucleotide-free state); conditions: both partners purified
[7] = target: T2, microtubules of recombinant human …; assay: co-sedimentation; BG-549-labelled HK349 with MTs; x2 MA buffer, 1 mg/ml casein, 40 uM taxol, 1 mM AMPPNP and 1 U/ml apyrase (AMPPNP state); conditions: both partners purified

Binder	binding result [3]	fold increase in Kd against the WT–WT pair [5] [fold]	fold increase in Kd against the WT–WT pair [6] [fold]	other results
B1	binds	–	–	MT-activated kinesin ATPase, apparent Michaelis–Menten constant K0.5MT as multiple of that with WT MTs [1]: 10 times of WT; MT-activated kinesin ATPase, kcat as percent of that with WT MTs [1]: 23 % of WT; MT-activated kinesin ATPase, apparent Michaelis–Menten constant K0.5MT as multiple of that with WT MTs [2]: 9.7 times of WT; MT-activated kinesin ATPase, kcat as percent of that with WT MTs [2]: 17 % of WT
B2	binds	–	–	–
B3	binds	–	–	binding frequency, fold of that of WT KIF5B to WT MT [4]: 2 fold
B4	–	2	10	–
B5	–	~6	~70	fold increase in Kd against the WT–WT pair [7]: ~90 fold
